Test results reported in article PMC4451460.

Tests used:
[1] = target: HTT(1-17) peptide, the 17 N-terminal residues of huntingtin (human) (UniProt P42858); experiment: ITC; isothermal calorimetry of C4 scFv with HTT(1-17) and truncated peptides; conditions not shown (Fig. S3)
[2] = target: truncated peptide HTT(1-14) (human) (UniProt P42858); experiment: as above

C4 single-chain Fv antibody (C4 scFv) gave a Kd [1] of 50 nM and a fold decrease in binding affinity compared to HTT(1-17) [2] of 10 fold.
